Results from patent CN113929781A (MABWELL SHANGHAI BIOTECHNOLOGY CO LTD; JIANGSU MAIWEIKANG …, dated 2022).

Tests used:
[1] = target: T1, 人PD-1-hFc (human, UniProt Q15116 21-167); experiment: competition ELISA, PD-1-hFc coated, competitor PD-L2-hFc-Biotin at 2 μg/mL
T1 construct: range 21-167; also called 重组人PD-1; Lot 20180329; not shown: human Fc (hFc)

[2] = target: T1, 人PD-1-hFc; experiment: competition ELISA, PD-1-hFc coated, competitor PD-L1-mFc at 1 μg/mL

T1 sequence (Q15116 21-167 limits assumed, form in doubt): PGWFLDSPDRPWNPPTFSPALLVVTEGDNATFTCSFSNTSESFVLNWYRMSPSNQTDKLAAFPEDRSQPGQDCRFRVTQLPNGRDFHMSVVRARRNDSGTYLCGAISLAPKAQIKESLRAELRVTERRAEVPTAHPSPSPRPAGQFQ

B1: h317 (antibody, V domains shown)
VH: EVQLVESGGGLVKPGGSLRLSCAASGFTFSSYDMSWVRQAPGKGLEWVATISGGGSYTYYPDSVKGRFTISRDNAKNSLYLQMNSLRAEDTAVYYCASPDSSGVAYWGQGTLVTVSS
VL: DIVMTQSPLSLPVTPGEPASITCKASQDVETVVAWYLQKPGQSPRLLIYWASTRHTGVPDRFSGSGSGTDFTLKISRVEAEDVGVYYCQQYSRYPWTFGQGTKL
- IC50 [1]: 1.2 nM
- IC50 [2]: 1.4 nM
